According to PMC11249846 (Protein Science : A Publication of the Protein Society, 2024):

Biological target: Hsc70‐T204A (human, UniProt P11142 1-646, T204A)
Test: NMR titration

Sequence of Hsc70‐T204A (P11142 whole entry T204A): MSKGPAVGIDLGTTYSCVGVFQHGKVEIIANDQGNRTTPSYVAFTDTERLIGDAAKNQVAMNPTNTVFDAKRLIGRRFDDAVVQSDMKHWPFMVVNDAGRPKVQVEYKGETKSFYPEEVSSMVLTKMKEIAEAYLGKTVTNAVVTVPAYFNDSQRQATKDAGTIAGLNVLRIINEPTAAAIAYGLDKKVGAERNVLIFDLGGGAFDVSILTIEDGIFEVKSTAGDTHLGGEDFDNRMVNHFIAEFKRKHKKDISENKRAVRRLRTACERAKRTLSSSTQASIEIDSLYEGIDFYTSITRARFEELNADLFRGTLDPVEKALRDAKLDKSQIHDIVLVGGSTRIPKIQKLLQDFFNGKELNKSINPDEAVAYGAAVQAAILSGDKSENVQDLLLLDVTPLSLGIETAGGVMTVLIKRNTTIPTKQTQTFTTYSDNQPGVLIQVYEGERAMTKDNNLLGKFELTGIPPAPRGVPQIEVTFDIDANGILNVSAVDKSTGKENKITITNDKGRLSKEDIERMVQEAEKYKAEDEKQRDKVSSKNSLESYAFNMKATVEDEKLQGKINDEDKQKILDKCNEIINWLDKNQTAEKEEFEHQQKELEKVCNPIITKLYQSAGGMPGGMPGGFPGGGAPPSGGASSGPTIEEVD

binding result: binds
B1: wt (JD‐G/FR) (domain or fragment)
chain: not shown
